Changes are numbered by the printed parent chain.
B1: anti-CD22 heavy chain-only antibody Clone ID 335316 (antibody, V domains shown)
VH: QLQLQESGPGLVKPSETLSLTCTVSGGSISSSSYYWGWIRQPPGKGLEWIGHIYYSGATYYNPSLKNRVTISVDTSKNQFSLKLSSVTAADTAVYYCTREDSSSWRSRGQGTLVTVSS
B2: anti-CD22 heavy chain-only antibody Clone ID 335159 (antibody, V domains shown)
VH: B1 VH with A58V, V94A, E100D, S104N
B3: anti-CD22 heavy chain-only antibody Clone ID 335150 (antibody, V domains shown)
VH: B1 VH with G27D, S32G, S33D, P42S, G44E, A58V, T98K, E100D, S104N
B4: anti-CD22 heavy chain-only antibody Clone ID 335187 (antibody, V domains shown)
VH: B1 VH with E100D, S104N
B5: anti-CD22 heavy chain-only antibody Clone ID 335274 (antibody, V domains shown)
VH: B1 VH with H52S, A58S, N67S, K77R, K83N
B6: anti-CD22 heavy chain-only antibody Clone ID 335162 (antibody, V domains shown)
VH: B1 VH with S30I, H52S, A58S, T59A, N62H, N67S, V73I, T98A, E100D, S104N
B7: anti-CD22 heavy chain-only antibody Clone ID 335263 (antibody, V domains shown)
VH: B1 VH with S30N, S31D, S32N, Y34H, K77R, K83N
B8: anti-CD22 heavy chain-only antibody Clone ID 335171 (antibody, V domains shown)
VH: B1 VH with H52S, K77R, K83N, E100D, S104N
B9: anti-CD22 heavy chain-only antibody Clone ID 335232 (antibody, V domains shown)
VH: B1 VH with G27D, S32G, S33D, K77R, F80S, K83N, S104N
B10: anti-CD22 heavy chain-only antibody Clone ID 335293 (antibody, V domains shown)
VH: B1 VH with G27D, S32G, S33D, K77R
B11: anti-CD22 heavy chain-only antibody Clone ID 335261 (antibody, V domains shown)
VH: B1 VH with G27D, S32G, S33D, K66E
B12: anti-CD22 heavy chain-only antibody Clone ID 335207 (antibody, V domains shown)
VH: B1 VH with G27D, S32G, S33D, A58V, N67S, K77R, S104N
B13: anti-CD22 heavy chain-only antibody Clone ID 335301 (antibody, V domains shown)
VH: B1 VH with G27D, S32G, S33D, H52N
B14: anti-CD22 heavy chain-only antibody Clone ID 335154 (antibody, V domains shown)
VH: B1 VH with G27D, S32G, S33D, A58V, E100D, S104N
B15: anti-CD22 heavy chain-only antibody Clone ID 335203 (antibody, V domains shown)
VH: B1 VH with G27D, S32G, S33D, A58V, S104N
B16: anti-CD22 heavy chain-only antibody Clone ID 335182 (antibody, V domains shown)
VH: B1 VH with G27D, S32G, S33D, H52N, E100D, S104N
B17: anti-CD22 heavy chain-only antibody Clone ID 335218 (antibody, V domains shown)
VH: B1 VH with G27D, S32G, S33D, K77R, S104N
B18: anti-CD22 heavy chain-only antibody Clone ID 335181 (antibody, V domains shown)
VH: B1 VH with G27D, S32G, S33G, E100D, S104N
B19: anti-CD22 heavy chain-only antibody Clone ID 335244 (antibody, V domains shown)
VH: B1 VH with G27D, S32G, S33D, K77R, K83N
B20: anti-CD22 heavy chain-only antibody Clone ID 335160 (antibody, V domains shown)
VH: B1 VH with G27D, S32G, S33D, H52S, E100D, S104N
B21: anti-CD22 heavy chain-only antibody Clone ID 335170 (antibody, V domains shown)
VH: B1 VH with G27D, S32G, S33D, K77R, E100D, S104N
B22: anti-CD22 heavy chain-only antibody Clone ID 335234 (antibody, V domains shown)
VH: B1 VH with G27D, S32G, S33D, H52N, S104N
B23: anti-CD22 heavy chain-only antibody Clone ID 335151 (antibody, V domains shown)
VH: B1 VH with G27D, S32G, S33D, K77R, K83N, E100D, S104N
B24: anti-CD22 heavy chain-only antibody Clone ID 335158 (antibody, V domains shown)
VH: B1 VH with S32G, S33D, K77R, E100D, S104N
B25: anti-CD22 heavy chain-only antibody Clone ID 335260 (antibody, V domains shown)
VH: B1 VH with G27D, S32G, S33D, A58V, K77R, K83N
B26: anti-CD22 heavy chain-only antibody Clone ID 335245 (antibody, V domains shown)
VH: B1 VH with G27D, S32G, S33D
B27: anti-CD22 heavy chain-only antibody Clone ID 335271 (antibody, V domains shown)
VH: B1 VH with G27D, S32G, S33D, Q41H
B28: anti-CD22 heavy chain-only antibody Clone ID 335254 (antibody, V domains shown)
VH: B1 VH with G27D, S32G, S33D, A58V
B29: anti-CD22 heavy chain-only antibody Clone ID 335201 (antibody, V domains shown)
VH: B1 VH with G27D, S32G, S33D, A58V, K77R, S104N
B30: anti-CD22 heavy chain-only antibody Clone ID 335161 (antibody, V domains shown)
VH: B1 VH with G27D, S32G, S33D, K66E, E100D, S104N
B31: anti-CD22 heavy chain-only antibody Clone ID 335206 (antibody, V domains shown)
VH: B1 VH with G27D, S32G, S33D, S104N
B32: anti-CD22 heavy chain-only antibody Clone ID 335185 (antibody, V domains shown)
VH: B1 VH with G27D, S32G, S33D, K77R, K83N, S104N
B33: anti-CD22 heavy chain-only antibody Clone ID 324508 (antibody, V domains shown)
VH: B1 VH with S32G, S33D, K66E, E100D, S104N
B34: anti-CD22 heavy chain-only antibody Clone ID 335307 (antibody, V domains shown)
VH: B1 VH with G27D, S32G, S33D, H52S, A58S, N67S
B35: anti-CD22 heavy chain-only antibody Clone ID 335176 (antibody, V domains shown)
VH: B1 VH with G27D, S32G, S33D, E100D, S104N
B36: anti-CD22 heavy chain-only antibody Clone ID 335323 (antibody, V domains shown)
VH: B1 VH with G27D, S32G, S33G, H52S, A58S

Each binder was assayed against T1, human CD22 (human, UniProt P20273 20-687) (assay: BLI).
Summary of the method: (§1)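 Affinity for human CD22 protein was measured by biolayer interferometry on an Octet QK-384 with anti-human IgG Fc capture biosensors, in 1×PBS, 0.1% BSA, 0.02% Tween-20, pH 7.2. Heavy chain-only antibodies were loaded at 5 μg/mL for 120 seconds, then dipped into a 7-point 1:2 dilution series of CD22 starting at 250 nM, with a buffer-only reference well. Kd was derived as koff/kon from a 1:1 binding model fit in Octet Data Analysis v9.0.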

T1 sequence (P20273 20-687): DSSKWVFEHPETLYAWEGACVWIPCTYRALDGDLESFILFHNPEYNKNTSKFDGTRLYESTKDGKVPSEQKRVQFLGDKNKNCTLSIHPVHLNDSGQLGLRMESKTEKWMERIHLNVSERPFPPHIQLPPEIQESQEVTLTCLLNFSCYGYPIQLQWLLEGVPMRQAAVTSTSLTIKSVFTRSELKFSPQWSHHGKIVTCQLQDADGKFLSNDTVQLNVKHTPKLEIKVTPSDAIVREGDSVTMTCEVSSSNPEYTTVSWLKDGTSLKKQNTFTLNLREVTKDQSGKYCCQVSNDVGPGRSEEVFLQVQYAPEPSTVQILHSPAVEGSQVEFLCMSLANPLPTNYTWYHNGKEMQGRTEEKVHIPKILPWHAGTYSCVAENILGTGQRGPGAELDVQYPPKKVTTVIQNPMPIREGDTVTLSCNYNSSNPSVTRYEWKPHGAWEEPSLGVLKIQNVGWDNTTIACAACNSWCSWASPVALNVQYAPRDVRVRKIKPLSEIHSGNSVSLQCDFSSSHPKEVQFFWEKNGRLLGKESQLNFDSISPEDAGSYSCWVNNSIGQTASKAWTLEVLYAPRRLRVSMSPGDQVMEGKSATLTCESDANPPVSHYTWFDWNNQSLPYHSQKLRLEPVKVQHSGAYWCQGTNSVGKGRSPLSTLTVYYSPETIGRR

Binder	Kd
B1	23.5 nM
B2	16.1 nM
B3	14.1 nM
B4	128 nM
B5	23.6 nM
B6	99.6 nM

Target: T1, human CD22
Experiment: BLI
Remark: another data set of the same source
Summary of the method: as §1

Binder	Kd
B7	2580 nM
B8	84.5 nM
B9	24.6 nM

Target: T1, human CD22
Experiment: BLI
Remark: another data set of the same source
Summary of the method: as §1

Binder	Kd
B10	7.41 nM
B11	5.27 nM
B12	3.24 nM
B13	12.6 nM
B14	5.41 nM
B15	6.8 nM
B16	22.4 nM
B17	8.91 nM
B18	9.44 nM
B19	5.07 nM
B20	8.51 nM
B21	6.5 nM
B22	12.4 nM
B23	3.77 nM
B24	42.3 nM
B25	3.17 nM
B26	7.44 nM
B27	21.6 nM
B28	2.83 nM
B29	5.19 nM
B30	2.66 nM
B31	7.53 nM
B32	8.43 nM
B33	12.5 nM
B34	10.3 nM
B35	4.62 nM
B36	14.1 nM

— patent publication US20210047402A1 (published 2021)
